Results: US20240343803A1 (SHANDONG SIMCERE BIOPHARMACEUTICAL, published 2024)

B1: TIGIT-002-H2L1 (antibody, V domains shown)
VH: EVQLQESGPGLVKPSETLSLTCAVSGYSITSDSWNWIRQPPGKKLEWIGYISYSGNTYYNPSLKSRVTISRDTSKNQFSLKLSSVTAADTAVYYCARLDFSNYGGAVDYWGQGTTVTVSS
VL: DIVMTQTPLSLSVTPGQPASISCKASQNVRTAVAWYLQKPGQSPQLMIYSASYRYTGVPDRFSGSGSGTDFTLKISRVEAEDVGVYYCQQYYTTPWTFGGGTKVEIK
notes: Humanized anti-TIGIT antibody
B2: TIGIT-002-H3L2 (antibody, V domains shown)
VH: EVQLQESGPGLVKPSETLSLTCAVSGYSITSDSWNWIRQPPGKKLEWMGYISYSGNTYYNPSLKSRITISRDTSKNQFSLKLSSVTAADTAVYYCARLDFSNYGGAVDYWGQGTTVTVSS
VL: DIVMTQTPLSLSVTPGQPASISCKASQNVRTAVAWYQQKPGQSPQLMIYSASYRYTGVPDRFSGSGSGTDFTLKISRVEAEDVGVYYCQQYYTTPWTFGGGTKVEIK
notes: Humanized anti-TIGIT antibody
B3: TIGIT-002-H2L2 (antibody, V domains shown)
VH: EVQLQESGPGLVKPSETLSLTCAVSGYSITSDSWNWIRQPPGKKLEWIGYISYSGNTYYNPSLKSRVTISRDTSKNQFSLKLSSVTAADTAVYYCARLDFSNYGGAVDYWGQGTTVTVSS
VL: DIVMTQTPLSLSVTPGQPASISCKASQNVRTAVAWYQQKPGQSPQLMIYSASYRYTGVPDRFSGSGSGTDFTLKISRVEAEDVGVYYCQQYYTTPWTFGGGTKVEIK
notes: Humanized anti-TIGIT antibody
B4: TIGIT-002-H1L1 (antibody, V domains shown)
VH: EVQLQESGPGLVKPSETLSLTCAVSGYSITSDSWNWIRQPPGKGLEWIGYISYSGNTYYNPSLKSRVTISRDTSKNQFSLKLSSVTAADTAVYYCARLDFSNYGGAVDYWGQGTTVTVSS
VL: DIVMTQTPLSLSVTPGQPASISCKASQNVRTAVAWYLQKPGQSPQLMIYSASYRYTGVPDRFSGSGSGTDFTLKISRVEAEDVGVYYCQQYYTTPWTFGGGTKVEIK
notes: Humanized anti-TIGIT antibody
B5: TIGIT-002-H3L1 (antibody, V domains shown)
VH: EVQLQESGPGLVKPSETLSLTCAVSGYSITSDSWNWIRQPPGKKLEWMGYISYSGNTYYNPSLKSRITISRDTSKNQFSLKLSSVTAADTAVYYCARLDFSNYGGAVDYWGQGTTVTVSS
VL: DIVMTQTPLSLSVTPGQPASISCKASQNVRTAVAWYLQKPGQSPQLMIYSASYRYTGVPDRFSGSGSGTDFTLKISRVEAEDVGVYYCQQYYTTPWTFGGGTKVEIK
notes: Humanized anti-TIGIT antibody
B6: TIGIT-002-H1L2 (antibody, V domains shown)
VH: EVQLQESGPGLVKPSETLSLTCAVSGYSITSDSWNWIRQPPGKGLEWIGYISYSGNTYYNPSLKSRVTISRDTSKNQFSLKLSSVTAADTAVYYCARLDFSNYGGAVDYWGQGTTVTVSS
VL: DIVMTQTPLSLSVTPGQPASISCKASQNVRTAVAWYQQKPGQSPQLMIYSASYRYTGVPDRFSGSGSGTDFTLKISRVEAEDVGVYYCQQYYTTPWTFGGGTKVEIK
notes: Humanized anti-TIGIT antibody
B7: PVRIG-A11 (Fc fusion)
chain: QLQLVESGGGLVQPGGSLRLSCAASGFTDDYYAIGWFRQAPGKEREGVSCISGSGGSTNYEDSVKGRFAISRDNAKNMVYLQMNDLKPEDTAVYYCAADPFWSAPCTGHNDRYFDVWGQGTLVTVSS
notes: heavy chain antibody VHH-hinge-CH2-CH3, human IgG1 constant part; not shown: human IgG1 hinge-CH2-CH3

Legend:
[1] = target: T1, Fusion protein of extracellular domain of human TIGIT and mouse IgG2a Fc fragment (human TIGIT ECD-mFc) (human); test: ELISA, human TIGIT ECD-mFc
T1 construct: The entry includes the signal peptide (limits not recoverable) and the mouse IgG2a Fc
T1 chain: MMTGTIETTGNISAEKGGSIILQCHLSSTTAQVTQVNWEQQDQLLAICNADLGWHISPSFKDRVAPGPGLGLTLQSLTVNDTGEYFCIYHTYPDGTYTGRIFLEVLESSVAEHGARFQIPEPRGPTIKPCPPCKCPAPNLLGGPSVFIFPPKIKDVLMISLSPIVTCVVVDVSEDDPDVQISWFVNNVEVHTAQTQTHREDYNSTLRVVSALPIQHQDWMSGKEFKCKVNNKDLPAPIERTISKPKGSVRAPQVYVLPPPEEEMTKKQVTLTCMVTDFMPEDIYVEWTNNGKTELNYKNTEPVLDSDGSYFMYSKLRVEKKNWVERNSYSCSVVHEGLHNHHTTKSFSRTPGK
Procedure: (§1) After discarding the coating solution, the plate was added with 5% skim milk powder (Sangon Biotech, CAT #A600669-0250)-PBS, 250 μL/well, and incubated at 37° C. for 2-4 hours. […] The enzyme-labeled plate was then washed with 0.05% Tween 20-PBS for 3 times on the Microplate Washer, added with tested antibodies diluted to 13 nM with 1% BSA (diluted by 3-fold serial dilution for 12 concentration points), 50 μL/well, and incubated at 37° C. for 1.5-2 hours. The plate was washed with 0.05% Tween 20-PBS for 3 times on the Microplate Washer, then added with HRP enzyme-labeled antibodies (Merck, CAT #AP113P) diluted with 1% BSA (Sangon Biotech, CAT #A500023-0100)-PBS at a dilution ratio of 1:5000, 50 μL/well, and incubated at 37° C. for 1 hour. After washing 3 times with 0.05% Tween 20-PBS on the Microplate Washer, the plate was added with TMB chromogenic solution (KPL, CAT #52-00-03), 50 μL/well, and incubated at room temperature for 7-10 minutes. 1M HCL, 50 μL/well, was then added into the plate to terminate the reaction, and the OD450 nm was read by a microplate reader (Biotek, Powerwave HT). […] (b) The binding activity of anti-TIGIT chimeric antibodies to CHO-K1 human TIGIT (cells with high, medium and low expression levels) and CHO-KI cynomolgus monkey TIGIT detected by FACS.
(§2) The affinity of the above humanized antibodies with human TIGIT ECD-His is detected by BIAcore, and with reference to the methods of Example 4 (a), (b), and (d), the binding activity of the above humanized antibodies to human TIGIT ECD-mFc, CHO-K1 human TIGIT, CHO-K1 cynomolgus monkey TIGIT and cynomolgus monkey TIGIT ECD-mFc, and the effect of the humanized antibodies blocking the binding between human TIGIT ECD-mFc and CHO-K1 CD155 are detected, the results are shown in Table 18.

[2] = target: T2, Full-length cynomolgus monkey TIGIT on CHO-K1 cells (CHO-K1 cynomolgus monkey TIGIT) (cynomolgus monkey); test: cell binding, CHO-K1 cynomolgus monkey TIGIT
T2 construct: NCBI XP_015300911.1
T2 sequence (chain, as listed by the source limits assumed): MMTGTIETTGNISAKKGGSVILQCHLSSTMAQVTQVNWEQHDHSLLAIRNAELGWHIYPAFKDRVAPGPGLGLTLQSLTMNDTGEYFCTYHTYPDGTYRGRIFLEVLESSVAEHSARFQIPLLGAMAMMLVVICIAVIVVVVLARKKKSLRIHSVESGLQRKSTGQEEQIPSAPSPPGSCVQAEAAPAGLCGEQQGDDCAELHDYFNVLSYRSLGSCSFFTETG
Procedure: (§3) The collected cells were washed once with PBS (Hyclone, CAT #SH30256), resuspended to 2×10⁵/50 μL with 1% BSA-PBS. The antibodies were diluted to 80 nM with 1% BSA-PBS (diluted by 3-fold serial dilution for 12 concentration points). The 50 μL cells were then mixed with 50 μL diluted antibodies, and then incubated at 4° C. for 60 minutes. […] After washing twice with PBS, the cell samples were resuspended with 1% BSA-PBS, 100 μL/well and then analyzed by flow cytometry (BD, Canto II). […] [0298] (c) The effect of anti-TIGIT chimeric antibodies blocking the interaction between Bio-CD155-His and CHO-K1 human TIGIT high expression cell strains detected by FACS
as §2

[3] = target: T3, Fusion protein of extracellular domain of human TIGIT and human IgG1 Fc fragment (human TIGIT ECD-hFc) (human); test: blocking of TIGIT ECD-hFc binding to CHO-K1 CD155 cells
T3 construct: The entry includes the signal peptide (limits not recoverable) and the human IgG1 Fc
T3 sequence (chain, as listed by the source limits assumed): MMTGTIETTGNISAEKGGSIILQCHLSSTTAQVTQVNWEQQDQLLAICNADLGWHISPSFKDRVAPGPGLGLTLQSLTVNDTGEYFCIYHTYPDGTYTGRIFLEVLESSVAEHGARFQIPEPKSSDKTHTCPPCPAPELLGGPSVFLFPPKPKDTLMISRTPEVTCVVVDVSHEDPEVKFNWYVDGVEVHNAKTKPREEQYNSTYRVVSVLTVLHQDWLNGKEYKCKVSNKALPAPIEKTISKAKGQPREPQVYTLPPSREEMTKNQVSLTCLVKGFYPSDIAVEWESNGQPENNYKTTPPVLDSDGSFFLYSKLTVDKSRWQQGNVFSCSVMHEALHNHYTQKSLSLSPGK
Outline: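 IC50 values come from inhibition curves in a cell-based ELISA using CHO-K1 CD155 cells. Antibodies premixed for 0.5 h with human TIGIT ECD-hFc (working concentration 30 ng/mL) were added to the fixed, blocked cells for 1.5-2 h at 37° C. Bound TIGIT was then detected with HRP secondary antibody and TMB at OD450 nm.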

[4] = target: T4, Fusion protein of extracellular domain of cynomolgus monkey TIGIT and mouse IgG2a Fc fragment (cynomolgus … (cynomolgus monkey)); test: ELISA, cynomolgus monkey TIGIT ECD-mFc
T4 construct: The entry includes the signal peptide (limits not recoverable) and the mouse IgG2a Fc
T4 sequence (chain, as listed by the source limits assumed): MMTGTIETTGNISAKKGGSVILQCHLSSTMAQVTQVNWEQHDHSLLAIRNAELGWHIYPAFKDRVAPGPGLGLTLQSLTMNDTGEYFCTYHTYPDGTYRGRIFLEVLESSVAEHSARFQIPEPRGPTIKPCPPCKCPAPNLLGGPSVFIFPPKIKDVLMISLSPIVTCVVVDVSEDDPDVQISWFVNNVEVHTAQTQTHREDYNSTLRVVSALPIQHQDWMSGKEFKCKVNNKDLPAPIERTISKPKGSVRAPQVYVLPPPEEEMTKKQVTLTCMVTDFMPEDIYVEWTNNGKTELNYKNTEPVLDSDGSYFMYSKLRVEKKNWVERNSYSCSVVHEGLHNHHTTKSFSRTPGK
Procedure: as §1, §2

[5] = target: T5, Full-length human TIGIT on CHO-K1 cells (CHO-K1 human TIGIT) (human, UniProt Q495A1 22-244); test: cell binding, CHO-K1 human TIGIT high expression strain
T5 construct: NCBI XP_024309156.1; the entry includes the signal peptide (limits not recoverable); The strain (high, medium, low) is named under assay; also called high expression strain 1D2; medium expression strain 2D10
T5 sequence: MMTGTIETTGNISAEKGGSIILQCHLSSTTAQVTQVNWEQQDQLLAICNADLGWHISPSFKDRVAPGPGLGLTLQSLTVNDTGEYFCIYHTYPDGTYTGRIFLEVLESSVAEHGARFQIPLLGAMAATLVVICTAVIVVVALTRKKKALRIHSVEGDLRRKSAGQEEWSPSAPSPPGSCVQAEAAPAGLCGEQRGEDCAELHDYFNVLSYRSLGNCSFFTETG
Procedure: as §3, §2

[6] = target: T6, human PVRIG-his (AcroBiosystems, Cat NO. PVG-H52H4) (human, UniProt Q6DKI7 41-171, limits assumed); test: SPR (BIAcore), antibody captured on Protein A chip, human PVRIG-His analyte
T6 construct: also called human PVRIG protein
T6 sequence (looked up): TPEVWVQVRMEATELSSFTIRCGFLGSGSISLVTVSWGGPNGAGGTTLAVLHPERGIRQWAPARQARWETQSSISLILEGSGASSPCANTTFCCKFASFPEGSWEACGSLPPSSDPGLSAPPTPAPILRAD
Procedure: Biacore was used to detect the specific binding between anti-PVRIG antibody and human PVRIG protein. Protein A chip was used in the BIAcore assay. The time required for the chip to capture the diluted antibody and saturate the binding antigen to reach Rₘₐₓ (Maximum binding capacity, 50 RU) was measured by manual run. […] The affinity of antibody for antigen was measured by multi-cycle kinetics. In each cycle, the antibodies were injected prior to the injection of gradient concentraions of PVRIG proteins allowing the occurrence of antibody-antigen association and dissociation After each cycle, the Protein A chip was regenerated by Glycine, pH 1.5 (to remove the proteins on the chip). The affinity of antibody for antigen was calculated by BIAcore T200 analysis software.

[7] = target: T7, human PVRIG-mFc protein (Acro, PVG-H5253) (human, UniProt Q6DKI7 41-171, limits assumed); test: FACS competition, PVRIG-mFc binding to CHO-K1-CD112 cells, competitor CD112 on cells
T7 construct: bought protein
T7 sequence (looked up): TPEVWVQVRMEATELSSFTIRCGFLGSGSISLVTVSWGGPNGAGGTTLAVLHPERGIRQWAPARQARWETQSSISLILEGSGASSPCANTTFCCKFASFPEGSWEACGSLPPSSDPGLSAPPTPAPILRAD
Procedure: A working solution of human PVRIG-mFc protein (Acro, PVG-H5253) prepared with staining buffer, 1 μg/mL (four-fold concentration), was added into a 96-well plate (50 μL PVRIG-mFc working solution per well). […] The diluted antibodies were added to the well containing 50 μL of PVRIG-mFc. The plate was placed on a microplate shaker at 400 rpm for 1 minute to fully mix the antibodies and PVRIG-mFc proteins, and then incubated at 4° C. for 30 minutes. After the incubation, the cell suspension prepared above (100 μL) was added into the wells, gently mixed with the pipette tip and incubated at 4° C. for 30 minutes. After the incubation, the cells were washed twice with staining buffer (200 μL per well) and centrifuged at 350×g for 5 minutes to discard the supernatant. The PE goat anti-mouse IgG Fc antibody (Biolegend, 405337) was diluted 250 times with staining buffer, added into the washed wells (100 μL per well), mixed well, and stained at 4° C. for 30 minutes. After staining, the cells were washed twice with staining buffer, finally resuspended with 200 μL staining buffer and analyzed by flow cytometry (BD, Canto II). The weaker the fluorescence signal, the stronger the ability of the antibodies blocks the binding of CHO-K1 human CD112 cells to the PVRIG-mFc protein. An antibody binding curve was drawn with concentration of antibodies as the abscissa and the corresponding Mean Fluorescence Intensity (MFI) as the ordinate. The IC50 value of the antibodies and the AUC value of the binding curve were calculated by using a Four Parameter Logistic Fit (GraphPadPrism9). The smaller the IC50 value and AUC value, the stronger the ability of the antibodies competes with CHO-K1-CD112 cells to bind to human PVRIG-mFc protein. […] […] The smaller the percentage value, the stronger the blocking ability of the antibodies.

Row | Binder | EC50 [1] [pM] | EC50 [2] [pM] | IC50 [3] [pM] | EC50 [4] [pM] | EC50 [5] [pM] | Kd [6] [pM] | koff [6] [s⁻¹] | kon [6] [M⁻¹ s⁻¹] | % AUC to COM701-hIgG4 [7] [%] | % AUC to SRF813-hIgG1 [7] [%] | % IC50 to COM701-hIgG4 [7] [%] | % IC50 to SRF813-hIgG1 [7] [%]
1 | B1 | 18.8 | 181 | 646 | 87.7 | 46.8 |  |  |  |  |  |  | 
2 | B2 | 17 | 113 | 394 | 21.8 | 32.9 |  |  |  |  |  |  | 
3 | B3 | 22.2 | 120 | 560 | 55.4 | 21.5 |  |  |  |  |  |  | 
4 | B4 | 15.5 | 187 | 526 | 209 | 20.1 |  |  |  |  |  |  | 
5 | B5 | 12 | 232 | 459 | 25.3 | 20.4 |  |  |  |  |  |  | 
6 | B6 | 15.8 | 221 | 421 | 81.1 | 16.7 |  |  |  |  |  |  | 
7 | B7 |  |  |  |  |  | 106 | 0.00338 | 3.18e+07 | 78 | 58.9 | 62.8 | 64.1
